Assay [1] deals with PC3. The assay is described as follows: Tumor cell proliferation, PC3. The settings on record: PC3, 72 hours. The assay is classed as cell-based. As to the method: (§1) Cell Proliferation Assay. The effect of rK5 and rK5 peptides on endothelial cells were assessed using a proliferation assay with 1% BSA and 3 ng/ml bFGF in serum-free media. Relative cell numbers in each well of a 96 well microplate after incubation for 72 hours in the absence or presence of inhibitors were determined by using the AQueous cell proliferation assay (Promega, San Luis Obispo, Calif.). For all other cell lines tested for proliferation, minimal growth media was used (Cao, Y., Ji, R., Davidson, D., Schaller, J., Marti, D., Sohndel, S., McCance, S., O'Reilly, M., Llinas, M., and Folkman, J. Kringle domains of human angiostatin. Characterization of the anti-proliferative activity on endothelial cells. (1996) J. Biol. Chem. 271, 29461-29467). Results are presented as the percent inhibition of control cell (bFGF-induced) proliferation.

Assay [2] relates to GRP78 siRNA transfected HMVEC cells. The assay can be described thus: 3HK5 binding to GRP78 siRNA transfected cells. Details: species or system human. The settings on record: compared to scrambled siRNA transfected cells. As to the method:
FIG. 13 is a graph comparing the effect of binding of rK5 to GRP78 siRNA transfected HMVEC cells and scrambled siRNA transfected cells. GRP78 siRNA or scrambled siRNA transfected EaHy cells were grown in 96 well plates. The media was changed and ^3HK5 in PBS was added to the cells. The cells were incubated at room temperature for two hours then washed thoroughly. Cell counts were measure for bound ^3HK5. Data points are the average of triplicate studies.
In selected studies, GRP78 siRNA- or scrambled siRNA-transfected EaHy cells were grown in 96 well plates. The media was changed and ^3HK5 in PBS was added to the cells at various concentrations. The cells were incubated at room temperature for two hours then washed thoroughly. Cell counts were measured for bound ^3HK5 as described above. Data points were calculated from the average of triplicate samples.

For assay [3], the system named is tumor or primary cell proliferation. The assay is described as follows: Tumor or primary cell proliferation. The assay is classed as cell-based. The settings on record: at concentrations as high as 100 μM. As to the method:
as §1

Assay [4] deals with MDA 445. The assay can be described thus: Tumor cell proliferation, MDA 445. As to conditions: MDA 445, 72 hours. The assay is classed as cell-based. As to the method:
as §1

For assay [5], the target named is T1, GRP78 (bovine brain) (Bos taurus, UniProt Q0VCX2).
T1 construct: from tissue; host or cells: bovine brain
T1 sequence (Q0VCX2 20-655): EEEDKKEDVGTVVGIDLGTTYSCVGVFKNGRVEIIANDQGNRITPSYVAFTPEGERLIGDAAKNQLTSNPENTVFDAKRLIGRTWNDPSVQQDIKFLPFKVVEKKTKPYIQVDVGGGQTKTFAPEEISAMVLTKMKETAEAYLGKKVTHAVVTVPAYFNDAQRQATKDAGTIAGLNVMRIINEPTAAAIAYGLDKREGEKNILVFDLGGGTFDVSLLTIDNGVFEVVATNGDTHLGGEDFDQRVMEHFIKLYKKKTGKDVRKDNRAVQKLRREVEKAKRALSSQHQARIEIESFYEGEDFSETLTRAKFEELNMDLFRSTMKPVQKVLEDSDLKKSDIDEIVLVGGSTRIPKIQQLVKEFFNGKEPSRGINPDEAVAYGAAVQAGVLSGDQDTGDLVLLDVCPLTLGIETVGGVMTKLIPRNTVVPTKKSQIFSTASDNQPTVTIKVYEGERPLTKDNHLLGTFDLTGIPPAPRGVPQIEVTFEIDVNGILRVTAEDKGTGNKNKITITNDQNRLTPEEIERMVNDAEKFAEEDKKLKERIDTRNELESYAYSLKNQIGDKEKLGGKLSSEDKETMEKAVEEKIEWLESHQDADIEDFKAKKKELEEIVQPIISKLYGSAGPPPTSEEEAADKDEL
The assay is described as follows: Ultracentrifugation binding of I125rK5(dog) with GRP78. As to conditions: 1 nM I125rK5(dog) + 1.5 nM GRP78; peptides 100 nM, rK5 1 nM. How it is done:
Ultra centrifugation with 50,000 MW cut off filters was used with iodinated recombinant dog K5 (I^125rKS(dog)) and GRP78 (bovine brain). The GRP78 and I^125rK5 (dog) were incubated for 1 hour at room temperature. The solution was then transferred to ultracentrifuges and spun at 10,000×g for 2 min. The top chamber contained GRP78 (mw 78,000) and I^125rK5 (dog) that bound. The top and bottom solutions were counted for I125. Column A: 1 nM I^125rK5(dog). Column B: 1 nM I^125rK5 (dog)+1.5 nM GRP78. Column C: 1 nM I^125rK5(dog)+1.5 nM GRP78+100 nM N-terminal K5 peptide, LLPDVETPSEED. Column D: 1 nM I^125rK5(dog)+1.5 nM GRP78±100 nM active site K5 peptide PRKLYDY. Column E: 1 nM I^125rK5(dog)+1.5 nM GRP78+1 nM rK5 (unlabeled). The GRP78 bound to the labeled rK5 causing its retention on the top of the filter.

In assay [6] the test system is endothelial cell migration. The assay can be described thus: Endothelial cell migration induced by various angiogenesis inducers (FIG. 9A). The format is cell-based, human. As to conditions: aFGF, bFGF, IL-8, PDGF, TGF-β and VEGF; rK5 400 pM (100 pM for VEGF, PDGF). How it is done: FIG. 9A is a graph showing inhibition by rK5 of endothelial cell migration induced by a variety of angiogenesis inducers including aFGF, bFGF, IL-8, PDGF, TGF-β, VEGF, HGF and […] at concentrations of 50 ng/mL, 15 ng/mL, 40 ng/mL, 1 pg/mL, 100 pg/mL 40 ng/mL and 250 ng/mL respectively. The concentration of rK5 used was 400 pM except for VEGF (rK5=100 pM), PDGF (rK5=100 pM) and HGF (rK5=10 pM). Membranes were covered, fixed and stained and the number of cells that had migrated to the upper chamber per 10 high power field counted. Background migration to DME+0.1% BSA was subtracted and the data reported as the number of cells migrated per 10 high power fields (100×). […]
Endothelial cell migration assays: The effect of rK5 on endothelial cell migration was determined by two different methods. […] After 4 h, migrated cells were measured by fluorescence (Frevert C W, Wong V A, Goodman R B, Goodwin R, Martin T R. Rapid fluorescence-based measurement of neutrophil migration in vitro. J Immunol Methods. 1998 Apr. 1;213(1):41-52). […] Growth factors were used, where indicated, at concentrations determined in preliminary experiments to give equivalent migration responses of about 100 cells migrated/high powered field (400×). […] Membranes were recovered, fixed and stained and the number of cells that had migrated to the upper chamber per 10 high power fields counted. […]

B1: rK5: recombinant kringle 5 fragment of human plasminogen (residues 450-543), expressed in E. coli or yeast (protein)
chain: LLPDVETPSEEDCMFGNGKGYRGKRATTVTGTPCQDWAAQEPHRHSIFTPETNPRAGLEKNYCRNPDGDVGGPWCYTTNPRKLYDYCDVPQCAA
For the molecule B1, the “IC50 values for cell proliferation” value in assay [1] and in assay [4] was over 100 mg/L in each case. In addition, the “binding to GRP78 siRNA transfected HMVEC cells” value in assay [2] is “very low”. In assay [3], the “inhibition of tumor or primary cell proliferation” value was “did not cause inhibition”. For the same molecule, in assay [5], the “inhibition of I125rK5(dog) binding to GRP78” value was “inhibited”. For the same molecule, the “inhibition of endothelial cell migration induced by inducers of angiogenesis” value in assay [6] was “inhibited”.

The record behind these values is patent US20050053993A1, “Uses of an endothelial cell receptor” (priority 2002, published 2005).
